{"source": "patent US20250066490A1", "about": "“ANTI-CD70 ANTIBODIES, CONJUGATES THEREOF AND METHODS OF USING THE SAME” (ProfoundBio US Co., priority 2021, published 2025)", "key": {"[1]": {"test_system": "cyno CD70 ECD", "test": "Biolayer interferometry (BLI), cyno CD70", "format": "binding"}, "[2]": {"test": "2E7 rat PK", "format": "in vivo, Sprague Dawley rats", "details": "intravenous infusion, 3 mg/kg, FIG. 14", "protocol": "2E7 was administered via intravenous infusion at 3 mg/kg to male Sprague Dawley rats (n=3 per group). Orbital blood was sampled from each rat at various time points post dosing. Circulating concentrations of 2E7 were analyzed by an ELISA assay (ProfoundBio) and calculated using the GraphPad Prism 6 software."}, "[3]": {"test_system": "786-O cells", "test": "Internalization by FACS immune-fluorescence staining, 786-O", "format": "cell-based, human", "protocol": "Briefly, 2×10^5 cells were harvested from a tissue culture flask by treatment with 0.25% Trypsin/EDTA and then incubated with 10 μg/ml of the lead antibodies or control antibodies in FACS buffer (1×PBS with 0.1% BSA) for 30 mins at 4° C. The cells were washed at 4° C. to remove unbound antibodies and kept on ice or shifted to 37° C. At the set time points (0 h, 4 h, 24 h), cells were incubated with PE-conjugated anti human Fc (Abcam, Ab98596) for 30 mins at 4° C. and then analyzed by flow cytometry. The internalization ratio was calculated by subtracting the 37° C. MFI from the 4° C. MFI, and then compared with 4° C. MFI.\n(§1) Four cell lines ([…]), Caki-1, Raji, MCF-7) were utilized in the internalization assay. Target (CD70) copy numbers were determined via the QIFIKIT (DAKO, K0078). Briefly, cells were labeled with a primary mouse monoclonal antibody against CD70. Cells, Set-up beads, Calibration beads (from the kit) were then labeled in parallel with a fluorescein-conjugated anti-mouse secondary antibody. The fluorescence is correlated with the number of bound primary antibody molecules on the cells and on the beads. Samples were subsequently analyzed on the flow cytometer and copy number determined based on the calibration curve (Table 11). For internalization assay, 3×10^5 cells were incubated at 4° C. for 30 min with 10 µg/ml 2E7 in FACS buffer (1×PBS containing 0.1% BSA). Cells were washed at 4° C. to remove unbound material and kept on ice or shifted to 37° C. for different lengths of time. At progressive timepoints ([…], 0.5, 1, 2, 3, 4 hr) cells were stained with PE-conjugated anti-human Fc for 30 min at 4° C. and analyzed by flow cytometry. Internalization rate were calculated by subtracting the mean fluorescence intensity (MFI) of cell surface-bound antibody at 37° C. at each time point from the MFI of cell surface-bound antibody at 4° C. at time 0, then divided by the MFI of the cell surface-bound antibody at 4° C. at time 0."}, "[4]": {"test_system": "cynomolgus CD70 recombinant protein", "test": "Antibody binding ELISA, cynomolgus CD70", "details": "full IgG, FIG. 3", "protocol": "The binding specificity of the CD70 antibodies was tested by ELISA according to a standard protocol. Briefly, 96-well micro-plates were coated with 2 μg/ml of human or cynomolgus CD70 recombinant protein in PBS at 100 μl per well and incubated overnight at 4° C. The plates were washed twice with TBS+0.5% Tween20. 200 μL of blocking buffer (2% BSA in PBS) was added to each well, and the plates were incubated at 37° C. for 2 hours. The plates were washed using the wash buffer mentioned above. Serially diluted antibodies were added to the ELISA plates using 100 μl per well, and the plates were incubated for 1 hour at room temperature. Then plates were washed 3 times. HRP conjugated anti-human Fc antibody solution (Sigma, I18885-2ML, diluted with blocking buffer) was added to the plates using 100 μl per well. The plates were incubated at room temperature for 1 hour and then washed 3 times. Then the TMB solution was added to plates using 100 μl per well and the plates were placed at RT for 5-15 mins. Then the stop solution (2M H2SO4) was added using 50 μl per well. The absorbance was measured at A450 and A630."}, "[5]": {"test_system": "Raji cells", "test": "Internalization time course, Raji", "format": "cell-based, human", "details": "up to 4 hr, FIG. 13", "protocol": "as §1"}, "[6]": {"molecular_target": "T1, mouse CD70 extra-cellular domain (ECD) (Mus musculus, UniProt O55237)", "T1 construct": "human, rat, or mouse CD70 extra-cellular domain (ECD) linked to His tag; His tag; purchased ACRO systems", "T1 sequence (O55237 45-195)": "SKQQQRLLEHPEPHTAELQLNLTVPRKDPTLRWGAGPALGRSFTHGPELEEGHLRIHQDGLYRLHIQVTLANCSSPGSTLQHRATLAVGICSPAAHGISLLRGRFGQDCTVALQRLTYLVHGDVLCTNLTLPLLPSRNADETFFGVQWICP", "test": "Biolayer interferometry (BLI), mouse CD70", "format": "binding", "details": "for Response: *Response below range of quantification", "protocol": "Recombinant proteins consisting of human, rat, or mouse CD70 extra-cellular domain (ECD) linked to His tag was purchased (from ACRO systems). 69A7 and 2E7 (20 nM) were immobilized on anti-human IgG Fc biosensor tips (ForteBio). Binding assays using one concentration (100 nM) of recombinant protein in solution were performed using Octet RED (ForteBio). Association time was set at 180s and dissociation time was set at 300s. Binding affinity was calculated using ForteBio Data Acquisition 6.3 software. Affinity was derived by fitting the kinetic data to a 1:1 Langmuir binding model utilizing global fitting algorithms. […] Binding assays for 2E7 using multiple dilutions (from 200 nM down to 3.13 nM) of species' recombinant CD70 ECD proteins in solution were also performed using the same method."}}, "data": [{"molecule": "2E7: anti-CD70 antibody clone, VH SEQ 7 and VL SEQ 8; tested as scFv and full human IgG1/kappa (antibody, V domains shown, Synthetic 2E7 VH amino acid sequence; Synthetic 2E7 VL amino acid sequence, tested as scFv and full human IgG1/kappa) VH: QVQLQESGPGLVKPSETLSLTCTVSGGSVSSDYYYWSWIRQPPGKGLEWLGYIYYSGSTNYNPSLKSRVTISVDTSKNQFSLKLRSVTTADTAVYYCARGDGDFLGVCFDYWGQGTLVTVSS VL: EIVLTQSPATLSLSPGERATLSCRASQSVSSYLAWYQQKPGQAPRLLIFDASNRATGIPARFSGSGSGTDFTLTISSLEPEDFAVYYCQQRSNWPLTFGGGTKVEIK", "values": [{"measurement": "Response", "setting": "[1]; CYNO CD70 3.13 nM", "result": 0.1275}, {"measurement": "Response", "setting": "[1]; CYNO CD70 6.25 nM", "result": 0.204}, {"measurement": "Response", "setting": "[1]; CYNO CD70 12.5 nM", "result": 0.2927}, {"measurement": "Response", "setting": "[1]; CYNO CD70 25 nM", "result": 0.3702}, {"measurement": "Response", "setting": "[1]; CYNO CD70 50 nM", "result": 0.4136}, {"measurement": "Response", "setting": "[1]; CYNO CD70 100 nM", "result": 0.4825}, {"measurement": "Response", "setting": "[1]; CYNO CD70 200 nM", "result": 0.4991}, {"measurement": "ka", "setting": "[1]; CYNO CD70, multiple dilutions 200-3.13 nM, global fit", "result": 617800, "unit": "M⁻¹ s⁻¹"}, {"measurement": "plasma PK", "setting": "[2]", "result": "stable plasma PK in rat that is characteristic of IgG1 antibodies"}, {"measurement": "absolute amount of antibody internalized into cell vs parent antibody 69A7", "setting": "[3]; based on the cell binding affinity", "result": "higher absolute amount of antibody internalized into cell than the parent antibody 69A7"}, {"measurement": "internalization, time course", "setting": "[3]; up to 4 hr, FIG. 13", "result": "rapid internalization"}, {"measurement": "cross binding activity to the cyno-antigen", "setting": "[4]", "result": "better cross binding activity to the cyno-antigen than antibody 69A7"}, {"measurement": "internalization, time course", "setting": "[5]", "result": "rapid internalization"}, {"measurement": "Response", "setting": "[6]; MOUSE CD70 3.13 nM", "result": "*−6.014E−03"}, {"measurement": "Response", "setting": "[6]; MOUSE CD70 6.25 nM", "result": "*−5.879E−03"}, {"measurement": "Response", "setting": "[6]; MOUSE CD70 12.5 nM", "result": "*−1.516E−03"}, {"measurement": "Response", "setting": "[6]; MOUSE CD70 25 nM", "result": "*−3.009E−03"}, {"measurement": "Response", "setting": "[6]; MOUSE CD70 50 nM", "result": "*0.0063"}, {"measurement": "Response", "setting": "[6]; MOUSE CD70 100 nM, dilution series", "result": "*0.0111"}, {"measurement": "Response", "setting": "[6]; MOUSE CD70 200 nM", "result": "*0.0012"}, {"measurement": "ka", "setting": "[6]; MOUSE CD70, multiple dilutions 200-3.13 nM, global fit, responses below range of quantification", "result": 117000, "unit": "M⁻¹ s⁻¹"}, {"measurement": "Response", "setting": "[6]; MS CD70 100 nM, one concentration", "result": "*0.0045"}, {"measurement": "ka", "setting": "[6]; MS CD70 100 nM, one concentration, response below range of quantification", "result": 3250, "unit": "M⁻¹ s⁻¹"}, {"measurement": "cross-reactivity to mouse CD70", "setting": "[6]; multiple dilutions, Table 10", "result": "no cross-reactivity"}, {"measurement": "cross-reactivity to mouse CD70", "setting": "[6]; one concentration (100 nM), Table 9", "result": "no cross-reactivity"}]}]}
